# Patent publication US20240245805A1 (Orna Therapeutics, Inc., priority 2020, published 2024)
# B1: Lesavirus 1 (nucleic acid)
# DNA: GTAACTAATAAGCAAGTTTTACTGCCTGCAAACTGCTTCAATGGGACCACCGCTTCGGCGACCCCTTTGTTGAGTTTGTATGTTTTTAAGTAATCTTTGCAACCATACGATTATTTTAGCCGCCTCTCTATAATGATCTTGTTATAGTGGGACGTGAAACATTGGTTTTTCTCACACACGTCCGGTCACCCGGGCGTGTGTTCTTCCGTAAGTCCTATCCACATACCATCGTGGGTAGGCCAGCATGTTTGCACAGGCTGTGACAGTGTGGGTGGGCTTTCCACCTCTCAACAACACACTGAATTGCAATGCACTCACGGAGGAAATGACAATTTGGTTATAGTTTTGAACTGTGCTAGTAATTTCTTTCACATTAAGCCATGTTGCCTGCGGAATCACATGTGGTAACACATGCCTCAGGGCCCAAAAGGCACGGGTTAGCAGCCCCTTCATGGTGTGTTAGAAGTGAAAACACATAGTATGAGCTATAATATCTTTGTTGTCTTCTCTGTAGTGTACCCCGCCAAATGTAAGGATGCCCAGCAGGTACCCATTTTATGGATCTGAGCTGGGGATTGATAGTGTATCTATAAATGCACTGATCAATTTAAAAAGCGTCTAAGTTTGGCACAAACACTGGGGACAGTGTTTTTCCTTTATTCTTTTATTTGATTA
# modifications: lipid formulation; source: /note="Description of Unknown: Lesavirus 1 sequence"
# B2: Hubei picorna-like virus 2 (nucleic acid)
# DNA: AGCAACTTCTTTCTGAAAACTAGCTAGAGTTCGACGATCTCTCTGGCTAATGACAAATAACCAATCAAAAAGTCAAATGTTCATGTATATATATATTTAGTAGTGACCTTTATTTAGAAAAACTTTAGATGATTTATCGTCAAGTTGCCCTTTGTGAAGCGATCAGCTTTTTATATCGTTTCATTTTTGTATACGTCTTAATTGACGTTGTAAGTACGTTTTGCATACCTCACATTGAGGATAGTATCGTTTCCTGACTAAGAAGTTAAACTAGTCTACCAATAGCAACCATATAGGATATAGCTTTGTTTTTAACAAGGTTTAATCTGATCTTATGCTCTTGCTTACGGTGTTTTATGTATAGAAAAGTTTTTATAAAAACTACATAATTGTCAAAAGAAAAAGCGTTACGTACTGACGCATTTATGTTCACAGTGTGACACAAACCTTCTATATTTTGATTGTAAAATAGGCTTTGCCTGACCATTTATCAAATACAAACTGTTTCAAACGCCTCTCCGAGCCATATTGGCCGACGCGAATCGACATAACAGGGTGAGTTTACAGCTGCAGTTGCAGCCGAGGATCCACTTATTTGAGAGAGAATTACTCTTAACGAAATTTTGAAGTCACTTCTACACAGTTAAGTCTGAGTAGGCGTTATCCAAACGTAAA
# modifications: source: /note="Description of Unknown: Hubei picorna-like virus 2 sequence"
# B3: Hepacivirus P (nucleic acid, listed as Hepacivirus sp.)
# DNA: ACATGGGGGGGGGCTGACAGTGAGTACACTGTGCCAAGCAGGTGCTACGCTATGCCTAGGTGCTGCTGTAGGCCAAGGACATGTCCCAGTCATCCCAGGTGAGGGGGGGGGTTCCCCTCACCGCTGCCACTGCCTGATAGGGTCCTGCCGGAGGGTCTCGGTGTCCGGCTGTAC
# B4: Harrier picornavirus 1 (nucleic acid)
# DNA: GATGTGTGACGGTGTAATTACTTTCCGGATCCCACTTTCCTATTATAACTCTTTCATCCCAAGGTTAGGGAAAGAACCTGGCTCGGTACCACCAGACCCTCCGCCACGCTAGTGGACTCTCCGGAGATAACGGTACCCCCTTTGTAGTCACCTGTGCTGGTGAAGAACCACCTAGTATTGCTTGGGTGCGTGCCGCCTAGCTTCCATTTCTTCTGGAGCACTGTGCAATGAGGTTTCCCCACTTGGTAACAAGTGCCTCAGGTCCCGCAAGGATACTGTGGGGTGGTGTGACCGCAGGGAGCTGTCTCCACGGCTCCTCTAATGTTACGCCGCTATCCACAGGCCAGTGCGTGTCATCGATCCCGGATGACAGAGCTAGTATTGCGAACCCCCAAGTAAGAAAAGTGGCTAGTAACCTGATAGCTGGTGAAGAGGGTGGGTCAGTTGAGTAGATGCCCTAGAGGTACCCGAAAGGATCTGACTAGGGACCCGTGACTATACATTAGGTAAACCGGGTATAAAAACCATGAAAAACTGACCACTTTTCTTTTAACCTCTTCTTTCTTTTTATGTGTGTTAAGTGTTTTGAGTTTGGACTGTACCTTGCCCGCCTTTCTTGGATTTTCTCTATCGCTCTTCTTACACCTACTGTTATCAAGGCACTCTTTAGAGATA
# modifications: source: /note="Description of Unknown: Harrier picornavirus 1 sequence"
# B5: Porcine reproductive and respiratory syndrome virus 2 (nucleic acid)
# DNA: ATGACGTATAGGTGTTGGCTCTATGCCTTGGCATTTGTATTGTCAGGAGCTGTGACCATTGGCACAGCCCAAAACTTGCTGCACAGAAACACCCTTCTGTGATAGCCTCCTTCAGGGGAGCTTAGGGTTTGTCCCTAGCACCTTGCTTCCGGAGTTGCACTGCTTTACGGTCTCTCCACCCCTTTAACC
# modifications: lipid formulation; source: /note="Description of Unknown: Porcine reproductive and respiratory syndrome virus 2 sequence"
# B6: Picornavirales Tottori-HG1 (nucleic acid)
# DNA: AGCCATGAACTAGTGTGCGATTCCCACAGTGTTGGTCGAAAGCCCCGCACTGTCTACTCGCATATTTGACTCCAGTCCTTCCGCAGCCAGCGGTTAGGTTCTGGTTAAAGTGCATTATGTGCACGGCGCCACGCAGAACTGCCAGAAATGGTAAGCTGCGCCCAACGCCAACGGTTTGTGTATCCCGTTAGTCACACGTTTACAGCTGTTCGTTAACAGTAGGGTTTTGTCGACCCGGACCCCTTAATGCGCGCGAATTCAACCGCGCCTAGTCGGCAATGGTATCATTTAATCCCATGCACTACGGGAGAAATTTGAGACCAAAGAATTCCTGAGGGCCACTGCTTGCTCTAAGTGCAATGCCTCGGGAGACTTCTGTCAGGAGCCTAGCGGCTTTCAACCGCGACAGCTAACTCCTGCGGGATGTTTGGTGTCCATACTTACTGGCGTCCTCACAACGCTAAGTGGATGTTGTCCACAGGTAGGCAAACACCGAGCCCCACATTCAGGAGACCTGTATGAACGATCCTATCAGCATTAGAGTTGGAATTGGGTGTGCTAACGTCCGCATAAGTGCACCCCGTGGTAACGCTGGGAAACTATCCAGCGCAACGTACTGTCCTCAATGTCTAGGGAAGGACCGCCCTAAGCGTACAACCGGGCCATGTGTCGAGC
# modifications: lipid formulation; source: /note="Description of Unknown: Picornavirales Tottori-HG1 sequence"
# B7: Kashmir bee virus: "an IRES is an IRES sequence of ... Kashmir bee virus" (nucleic acid)
# DNA: TACGTACAATTTTGACGCTTCGTTCATGCAACAATGAACTCACATGTGGCGCTCGGTAGTAACCAGAGGGGCGTCATTCCCCCGTATGGAGTGGAGAATATAAGCTACCGACTCGAGCTGTAGAATAATTCAGCAACTTATAACGAACACGAATTTTAGTCGACGAAACCATTTTAGCCTTTAATTCTATGATTTGATTATAATGATAAACAGCTCATGTAACTGTCTAAACTACATAAATACAACTGGATTACGAACCTTTAAGTAACTATCTTAGATGAAGTCTAGTAGTCTCCCAATATTTCCGTGAAAAGAATGAGGGACGAGATAGCTCTATTTAAAGACGTGAGGCTTTAAATTCTGATAAATACATTACCTGAGAATTCCTCCTTTAGGAGTTAGAATTTGAAAAGATTAGTACCTATACTTAATAGAATTTAAATATGTTAATAATGCTGAAGACAAGTATTTCGATTATTAACCTCTATATTTCTATATAAAGTATCTGTGAGTCTCAGTGGACATCACAGTAAGGTCGCAGTTAACTTGTAATCTTTTCATTCCTGTGTCGGAGCAGTGGTAATGGAGCCGGACGATTTCGCCAAAAC
# modifications: Kashmir bee virus
# B8: Jingmen picorna-like virus (nucleic acid)
# DNA: TGTGTTTTTGTCAAGATAATTGTTCTGTGATTAACAGTGATTGTGGTTCGTGTAATGCGACGCAGTCAAATGCTAGTTTTGATGAAGTGTATGAGAGAGTGGAAAACTTATCTCATAAGAAGATTGAAGAGTGTGTAGATCAGGCTATTGATCGAGCTTCTAAGCTTCGTGATTACAAGCTTAATGTTCACAATGGCTCCCGACGGGAATCATCTGATCCTCTCTTTATTTCGCCCCATTCGTTGTTATCGCTTGGGGTATCTAAGTTTGTTGCGTTTGAGCAGCATCACAGTTTCGCTTCAGTTGAGTCTCTGAAGTTGCTTGCTCTGTCT
# modifications: source: /note="Description of Unknown: Jingmen picorna-like virus sequence"
# B9: Miniopterus schreibersii picornavirus 1 (nucleic acid)
# DNA: GTTGTCGACCCGTTGCTTGGTTTAAGCATGAGGTGGATTCCCCCGATTATGTCTACCCGTTACTATGGCGGGCGGTCGTTTCAGGGTGTTTCTACTGAGGACTGCACCAAGTCTTTATCTTTTATTCTCAGATCTCCGGCTGTTTGACGCTTGTAGGACAGCAGGACTATTTTCTCTTAATCTTTTTCTACCCACTAGGGTCCTATCCTAGTGGAGGGAGGGTGCCACCCCTTCTCTCTTTAGAGAGTGCGCCTGGCGGTCTTTCCGTCTCTGGAAAAAGGAGCACATGGCATGCTACAATTGGCACAAGAAAACAAGCTTTGCGGATTCTTTCTTTGTACTAGAGGAAGCTGTAGCGACCCTGTATGGCGAGCGGACTCCCCTCTCGGCGACGAGAGCCTCTCGGGCCAAAAGCCAAGTGTTAATAGCACCCATACAGGCGGCAGTACCCCACTGCCCTTTCTCAACATACAATGACTGATGAACCACTGTTGGTTTTTCTGACACCTTTGTAGTAGGATTCCAAGGAATGTCCTGAAGGTACCCTGTTAGCTTACGCGCAGGATCTGATCAGGAGTCTCTTTACAGTGCTGTACACTGTGCAAGGGATTAAAAATTGTTTGAGGAATCCCCGAGATAGTGGTCTATCTCTTCCTATTTTGTTTTACAGACACG
# modifications: lipid formulation; source: /note="Description of Unknown: Miniopterus schreibersii picornavirus 1 sequence"
# Tested on: HEK293 cells
# Assay type: cell-based, human
# Details: circular RNA encoding Gluc with the listed IRES (UTR truncated to 675 nt) transfected into HEK293 cells; supernatant after 24 hours
row,Molecule,Expression (luminescence from secreted Gluc protein)
1,B1,6.37E+06
2,B2,1.95E+05
3,B3,6.04E+05
4,B4,1.47E+05
5,B5,1.29E+05
6,B6,9.54E+04
7,B7,1.65E+05
8,B8,9.32E+04
9,B9,6.05E+06
